First the molecules themselves.
B1: g28-D78-1_CLK09 (antibody, V domains shown)
VH: QVQLVQSGAEVKKPGASVKVSCKTSGYTFTAYYVHWVRQAPGQGLEWMGWINPTNGATNYAQIFQGRVTMTRDTSISTAYMELNRLRSDDTAVYYCARVGGLWAFDIWGQGTIVTVSS
VL: DIQMTQSPSSLSASVGDRVTITCQTSQHITRNLNWYQQKPGKAPKLLISDAYNLKIGVPSRFSGSGSGTDFTFTISSLQPEDVATYYCQQYEFFGGGTEVEIK
B2: g28-D78-19_CLK09 (antibody, V domains shown)
VH: QVQLVQSGAEVKKPGASVKVSCKTSGYTFTAYYVHWVRQAPGQGLEWMGWINPTNGATNYAQIFQGRVTMTRDTSISTAYMELNRLRSDDTAVYYCARVGGLWAFDIWGQGTIVTVSS
VL: DIQMTQSPSSLSASVGDRVTITCQASQHITRNLNWYQQKPGKAPKLLISDAYNLKIGVPSRFSGSGSGTDFTFTISSLQPEDVATYYCQQYEFFGGGTEVEIK
B3: g28-D78-10_CLK09 (antibody, V domains shown)
VH: QLQLVQSGADVKKPGASVKVSCKASGYTFTGYFIHWVRQAPGQGLEWMGWLNPIYGGVNYARNFQGRVTMTRDTSISTAYLELRRLKSDDTAVYYCARVAERMIFDVWGQGTMVTVSS
VL: DIQMTQSPSSLSASVGDRVTIACQASQDINNYVNWYQQKPGKAPKLLIYDASNLETGVPSRFSGSGSGTDFTFTISSLQPEDIATYYCQQYEFFGGGTKVEIK
B4: g28-D78-5_CLK09 (antibody, V domains shown)
VH: QLQLVQSGAEVKKPGASVKVSCKASGYTFTGYFIHWVRQAPGQGLEWMGWLNPIYGGVNYARNFQDRVTMTRDTSISTAYLELRRLKSDDTAVYYCARVAERMIFDVWGQGTMVTVSS
VL: DIQMTQSPSSLSASVGDRVTIACQASQDISNYVNWYQQKPGKAPKLLIYDASNLETGVPSRFSGSGSGTDFTFTISSLQPEDIATYYCQQYEFFGGGTKVEIK
B5: g28-D78-6_CLK09 (antibody, V domains shown)
VH: QLQLVQSGADVKKPGASVKVSCKASGYTFTGYFIHWVRQAPGQGLEWMGWLNPIYGGVNYARNFQDRVTMTRDTSISTAYLELRRLKSDDTAVYYCARVAERMIFDVWGQGTMVTVSS
VL: DIQMTQSPSSLSASVGDRVTIVCQASQDINNYVNWYQQKPGKAPKLLIYDASNLETGVPSRFSGSRSGTDFTFTISSLQPEDIATYYCQQYEFFGGGTKVEIK
B6: g28-D78-8_CLK09 (antibody, V domains shown)
VH: QLQLVQSGAEVKKPGASVKVSCKASRYTFTGYFIHWVRQAPGQGLEWMGWLNPIYGGVNYARNFQDRVTMTRDTSISTAYLELRRLKSDDTAVYYCARVAERMIFDVWGQGTMVTVSS
VL: DIQMTQSPSSLSASVGDRVTIACQASQDISNYVNWYQQKPGKAPKLLIYDASNLETGVPSRFSGSGSGTDFTFTISSLQPEDIATYYCQQYEFFGGGTKVRIK
B7: g28-D78-4_CLK09 (antibody, V domains shown)
VH: QLQLVQSGAEVKKPGASVKVSCKASGYTFTGYFIHWIRQAPGQGLEWMGWLNPIYGGVNYARNFQGRVTMTRDTSISTAYLELKRLKSDDTAVYYCARVAERMIFDVWGQGTMVTVSS
VL: DIQMTQSPSSLSASVGDRVTIACQASQDINNYVNWYQQKPGKAPKLLIYDASNLETGVPSRFSGSGSGTDFTFTISSLQPEDIATYYCQQYEFFGGGTKVEIK
B8: g28-D78-15_CLK09 (antibody, V domains shown)
VH: QLQLVQSGADVKTPGASVKVSCKASGYTFTSYFIHWVRQAPGQGLEWMGWLNPIYGAVNYARNFQDRVTMTRDTSISTAYLELRRLKSDDTAVYYCARVAERMIFDVWGQGTMVTVSS
VL: DIQMTQSPSSLSASVGDRVTIACQASQDINNYVNWYQQKPGKAPKLLIYDASNLETGVPSRFSGSGSGTDFTFTISSLQPEDIATYYCQQYEFFGGGTKVEIK
B9: g28-D78-16_CLK09 (antibody, V domains shown)
VH: QVQLVQSGAEVKKPGASVKVSCKASGYTFTGYHIHWVRQAPGQGLEWMGWVNPYHGGTNYAQIFQGRVTMTRDTSISTAYMELSRLRSDDTAVYYCALWFGEKKTFDIWGQGTMVTVSS
VL: DIQMTQSPSSLSASVGDRVTITCQASQGISNFLNWFQQKPGKAPKLLIYDVSNLETGVPSRFSGSGSGTDFTFTISSLQPEDIATYYCQQYEFFGGGTKVEIK
B10: g28-D78-12_CLK09 (antibody, V domains shown)
VH: QLQLVQSGTEVKKPGASVKVSCKASGYTFTGYFIHWVRQAPGQGLEWMGWLNPIYGGVNYARNFQGRVTMTRDTSISTAYLELKRLKSDDAAVYYCARVAERMIFDVWGQGTMVTVSS
VL: DIQMTQSPSSLSASVGDRVTIACQASQDINNYVNWYQQKPGKAPKLLIYDASNLETGVPSRFSGSGSGTDFTFTISSLQPEDIATYYCQQYEFFGGGTKVEIK
B11: g28-D78-20_CLK09 (antibody, V domains shown)
VH: QLQLVQSGAEVKKPGASVKVSCKASGYTFTGYFIHWVRQAPGQGLEWMGWLNPIYGGVNYARNFQDRVTMTRDTSISTAYLELRRLKSDDTAVYYCARVAERMIFDVWGQGTMVTVSS
VL: DIQMTQSPSSLSASVGDRVTIACQASQDINNYVNWYQQKPGKAPKLLIYDASNLETGVPSRFSGSGSGTDFTFTISSLQPEDIATYYCQQYEFFGGGTKVEIK
B12: g28-D78-11_CLK09 (antibody, V domains shown)
VH: QLQLVQSGADVKKPGASVKVSCKASGYTFTGYFIHWVRQAPGQGLEWMGWLNPIYGGVNYARNFQDRVTMTRDTSISTAYLELRRLKSDDTAVYYCARVAERMIFDVWGQGTMVTVSS
VL: DIQMTQSPSSLSASVGDRVTIACQSSQGINNYVNWYQQKPGKAPKLLIYDASNLETGVPSRFSGSGSGTDFTFTISSLQPEDIATYYCQQYEFFGGGTKVEIK
B13: g28-D78-3_CLK09 (antibody, V domains shown)
VH: QLQLVQSGAEVKKPGASVKVSCKASGYTFTGYFIHWIRQAPGQGLEWMGWLNPIYGGVNYARNFQGRVTMTRDTSISTAYLELKRLKSDDTAVYYCARVAERMIFDVWGQGTMVTVSS
VL: DIQMTQSPSSLSASVGDRVTIACQASQDINNYVNWYQQKPGKAPKLLIYDASNLETGVPSRFSGSGSGTDFTFTISSLQPEDIATYYCQQYEFFGGGTKVRIK
B14: g28-D78-18_CLK09 (antibody, V domains shown)
VH: QVQLVQSGAEVKKPGASVKVSCKASGYTFTDYHIHWVRQAPGQGLEWMGWVNPYHGGTNYAQIFQGRVTMTRDTSISTAYMELSRLRSDDTAVYYCALWFGEKKTFDIWGQGTMVTVSS
VL: DIQMTQSPSSLSASVGDRVTITCQASQGISNFLNWFQQKPGKAPKLLIYDVSNLETGVPSRFSGSGSGTDFTFTISSLQPEDIATYYCQQYEFFGGGTKVEIK
B15: g28-D78-2_CLK09 (antibody, V domains shown)
VH: QLQLVQSGAEVKKPGASVKVSCKASGYTFTGYFIHWVRQAPGQGLEWMGWLNPIYGGVNYARNFQGRVTMTRDTSISTAYLELKRLKSDDTAVYYCARVAERMIFDVWGQGTMVTVSS
VL: DIQMTQSPSSLSASVGDRVTIACQASQDINNYVNWYQQKPGKAPKLLIYDASNLETGVPSRFSGSRSGTDFTFTISSLQPEDIATYYCQQYEFFGGGTKVRIK
B16: g28-D78-13_CLK09 (antibody, V domains shown)
VH: QLQLVQSGAEVKKPGASVKVSCKASGYTFTGYFIHWVRQAPGQGLEWMGWLNPIYGGVNYARNFQGRVTMTRDTSISTAYLELKRLKSDDTAVYYCARVAERMIFDVWGQGTMVTVSS
VL: DIQMTQSPSSLSASVGDRVTIACQASQDINNYVNWYQQKPGKAPKLLIYDASNLETGVPSRFSGSGSGTDFTFTISSLQPEDIATYYCQQYEFFGGGTKVEIK
B17: g28v2-D38-1_CLK19 (antibody, V domains shown)
VH: QVQLVQSGAEVKKPGASVKVSCKASGYTFTGHHMHWVRQAPGQGLEWLGWINPRGGGTNYAQKFQGRVTMTRDTSISTAYMDLSRLRSDDTAVYYCTPVLATFRWRFDYWGQGTLVTVSS
VL: DIQMTQSPSSLSASVGDRVTFTCQASQDISNFLNWYQQKPGKAPKLLIYDTSNLEAGVPSRFSGGGSGTDFTFTISSLQPEDVATYYCQQYATFGPGTKVDIK
B18: g28-D78-14_CLK09 (antibody, V domains shown)
VH: QVQLVQSGAEVKKPGASVRVSCKASGYTFTGNYIHWVRQAPGQGLEWMGWLNPINGGTNHAQKFQGRVTMTRDTSISTAYMELSRLRSDDTTVYYCARVGGLWFGKGWTFDIWGQGTMVTVSS
VL: DIQMTQSPSSLSASVGDRVTITCQASQDISILNWYQQKPGKAPKLLIYGASNLETGVPSRFSGSGSGTDFTLTISSLQPEDIATYYCQQYEFFGGGTKVAIK
B19: g28-D78-21_CLK09 (antibody, V domains shown)
VH: QLQESGAEVKKPGASVRVSCKASGYTFTGNYIHWVRQAPGQGLEWMGWVNPINGGTNHAQKFQGRVTMTRDTSISTAYMELSRLRSDDTTVYYCARVGGLWFGKGWTFDIWGQGTMVTVSS
VL: DIQMTQSPSSLSASVGDRVTITCQASQDISILNWYQQKPGKAPKLLIYGASNLETGVPSRFSGSGSGTDFTFTISSLQPEDIATYYCQQYEFFGGGTKVRIK
B20: g28-D78-7_CLK09 (antibody, V domains shown)
VH: QVQLVQSGAEVKKPGASVRVSCKASGYTFTGNYIHWVRQAPGQGLEWMGWLNPINGGTNHAQKFQGRVTMTRDTSINTAYMELSRLKSDDTTVYYCARVGGLWSGKGWTFDIWGQGTMVTVSS
VL: DIQMTQSPSSLSASVGDRVTITCQASQDISILNWYQQKPGKAPKLLIYGASNLETGVPSRFSGSGSGTDFTFTISSLQPEDIATYYCQQYEFFGGGTKVEIK
B21: g28-D78-9_CLK09 (antibody, V domains shown)
VH: QVQLVQSGAEVKKPGASVRVSCKASGYTFTGNYIHWVRQAPGQGLEWMGWLNPINGGTNHAQKFQGRVTMTRDTSISTAYMELSRLRSDDTTVYYCARVGGLWSGKGWTFDIWGQGTMVTVSS
VL: DIQMTQSPSSLSASVGDRVTITCQASQDISILNWYQQKPGKAPKLLIYGASNLETGVPSRFSGSGSGTDFTFTISSLQPEDIATYYCQQYEFFGGGTKVEIK
B22: g28-D78-17_CLK09 (antibody, V domains shown)
VH: QVQLVQSGAEVKKPGASVRVSCKASGYTFTGNYIHWVRQAPGQGLEWMGWLNPINGGTNHAQKFQGRVTMTRDTSISTAYMELSRLRSDDTTVYYCARVGGLWLGKGWTFDIWGQGTMVTVSS
VL: DIQMTQSPSSLSASVGDRVTITCQASQDISILNWYQQKPGKAPKLLIYGASNLETGVPSRFSGSGSGTDFTFTISSLQPEDIATYYCQQYEFFGGGTKVEIK

The assay has as its target eOD-GT8 (monomeric ligand) (Human immunodeficiency virus 1, …).
Usually Kd stands for the concentration at which binding is half-saturated. Higher therefore signals a looser complex. With B1, the Kd is 7.1 nM.
As for B2, the Kd was determined as 8.8 nM.
Next, B3: 11 nM; B4: 6 nM.
Next, B5: 7.6 nM; B6: 8 nM; B7: 6.5 nM.
The figure for B8 is 160 nM; for B9 it is 130 nM.
With B10, the Kd is 11 nM.
Next, B11: 6.8 nM; B12: 9 nM.
The figure for B13 is 7.1 nM; for B14 it is 82 nM.
Next, B15: 15 nM.
Take B16: the Kd came to 11 nM.
Next, B17: 6.29 nM.
B18 gave a Kd of 0.29 nM.
B19 registered a Kd of 0.87 nM.
Next, B20: 0.2 nM; B21: 0.19 nM; B22: 0.25 nM.

The values above are taken from paper PMC11488661 (Science immunology, 2024).
